Reference: paper PMC11215725, “A Potent Sybody Selectively Inhibits α-Synuclein Amyloid Formation by Binding to the P1 Region” (Journal of Medicinal Chemistry, 2024)
* marks the point of attachment. Biotin = O=C1N[C@H]2[C@H](CS[C@H]2CCCCC(=O)*)N1

Legend:
[1] = molecular target: WT α-syn stabilized oligomers (Homo sapiens (Human)., UniProt P37840); assay: ELISA; 80 pmol αSP1 immobilised on the plate, 160 pmol of each α-syn species added, detection by anti-α-syn-HRP; blocking with 5% goat serum in TBS; conditions: both partners purified
[2] = molecular target: wild-type α-synuclein, monomeric (UniProt P37840); assay: ELISA; indirect ELISA: 30 μM WT or ΔP1 α-syn monomers coated on MaxiSorp plate, 1-10 μM αSP1 for 1 h at room temperature, detection by anti-six-His HRP; TBS; conditions: both partners purified
[3] = molecular target: T1, synthetic peptide with the sequence of P1 from α-syn (Homo sapiens (Human)., SMILES CC(C)C[C@H](NC(=O)[C@@H](NC(=O)CNC(=O)CCCC[C@@H]1SC[C@@H]2NC(=O)N[C@@H]21)C(C)C)C(=O)N[C@@H](Cc1ccc(O)cc1)C(=O)N[C@H](C(=O)NCC(=O)N[C@@H](CO)C(N)=O)C(C)C); assay: ELISA; screen in 96 wells: protein A coated, anti-c-Myc antibody, sybody from diluted periplasmic extract captured, then 500 nM biotinylated peptide, streptavidin-HRP; TBS with 0.5% BSA; OD 650 nm; conditions: one partner purified
T1 construct: P1 region of α-synuclein, residues 36-42; also called P1 peptide; peptide P1; source: synthetic peptide, bought: GenScript
T1 chain: Biotin-GVLYVGS-NH2

[4] = molecular target: WT α-syn samples collected after aggregation for 48 h (Homo sapiens (Human)., UniProt P37840); assay: ELISA; indirect ELISA: aliquots of a 20 μM WT α-syn aggregation taken at 0, 5, 10, 24 and 48 h coated on the plate, 2 μM αSP1, detection by anti-six-His HRP; conditions: both partners purified

Measured: binding result

B1: sybody αSP1 (VHH)
VHH: QVQLVESGGGLVQAGGSLRLSCAASGFPVRHQWMEWYRQAPGKEREWVAAISSFGQWTKYADSVKGRFTISRDNAKNTVYLQMNSLKPEDTAVYYCVVEVGYEYYGQGTQVTVSA
notes: His35 stands in CDR1; Synthetic single-domain antibody; results: NTA-Alexa Fluor 647; this is not a covalent change of a residue; also called aSP1; source: in periplasmic extract for the screen; purified (Ni-NTA, SEC) for all other experiments; not shown: Myc, C-terminal, kept; His tag, C-terminal, kept
binds: all assays above
